IC50 data for 11 molecules are collected here from patent publication US20170266254A1 (AILERON THERAPEUTICS, published 2017).

Residue numbers refer to the chain shown, from its start. Bridges are numbered along the chain shown (N, C = ends). [ ]: non-standard residue; d: D form. S5 = C=CCCC[C@](C)(N)C(=O)O

The test has as its target T1, C-terminally 6x Histidine-tagged Beta-Catenin (aa 134-668, 59 KD) (UniProt P35222 134-668).
T1 construct: range 134-668; Armadillo repeat region
T1 sequence: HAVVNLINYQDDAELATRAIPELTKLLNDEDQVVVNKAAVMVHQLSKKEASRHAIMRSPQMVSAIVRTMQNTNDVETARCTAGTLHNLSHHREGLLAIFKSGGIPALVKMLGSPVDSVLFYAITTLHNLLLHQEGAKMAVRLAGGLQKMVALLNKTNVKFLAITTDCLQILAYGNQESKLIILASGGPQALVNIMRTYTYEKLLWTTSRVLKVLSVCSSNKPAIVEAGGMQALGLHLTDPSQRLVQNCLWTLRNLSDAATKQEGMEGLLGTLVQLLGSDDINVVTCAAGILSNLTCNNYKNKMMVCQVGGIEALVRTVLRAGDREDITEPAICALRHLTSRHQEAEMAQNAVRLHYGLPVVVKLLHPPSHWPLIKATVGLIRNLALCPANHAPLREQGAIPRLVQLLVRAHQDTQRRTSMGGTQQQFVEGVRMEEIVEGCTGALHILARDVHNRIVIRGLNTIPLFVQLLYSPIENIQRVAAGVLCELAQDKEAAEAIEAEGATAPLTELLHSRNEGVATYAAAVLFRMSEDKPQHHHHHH
In words: competitive fluorescence polarization, FAM-labelled linear probe as competitor, His-tagged beta-catenin 134-668. On the procedure: The following experiments are performed at room temperature unless otherwise noted. First, an assay buffer is prepared composed of 25 mM Tris-Hcl pH 7.5, 200 mM Sodium Chloride, and 5 mM CHAPS. Next, 1M DTT is added to assay buffer to a final concentration of 2 mM. […] Forty μl of this protein stock is added to all but six wells of a 96 well plate (which will serve as the free peptide and Blank). Test competitor peptides are diluted from 1 mM DMSO stocks to 2× working stocks in assay buffer. Further dilutions are made in assay buffer-DMSO as to maintain a constant DMSO concentration in all wells. The dilution is carried out such that the peptides have a working concentration range of 40 μM-0.7 μM (2×). As a benchmark, a linear, non-crosslinked peptide competitor is prepared as above but with a working concentration range of 13-0.7 μM. Fifty μl of the competitor 2× stocks are added to the 40 μl of protein solution previously transferred into the assay 96 well plate. Next, a 10× stock of the fluorescent probe is prepared. The probe is identical to the linear benchmark peptide except for the n-terminal conjugation of a FAM flourophore with Beta-Alanine spacer. A 1 mM DMSO stock of the probe is serially diluted to a final concentration of 25 nM (10×) and 10 μl of this stock is added to all wells except for those that will serve as the blank. The assay plate is stored in the dark and the reaction is allowed to run at room temperature for three hours. The reaction is then read on a Biotek Synergy 2 with the following settings: 100 ms delay, 40 measurements per well, with excitation filters of […], and emission filters of […]. Data is then analyzed in Graphpad Prism.

B1: SP13 (peptide)
peptide: Ac-SAERDLADVKS[S5]LVN[S5]SEKR-NH2
modifications: staple 12-16
SMILES: CC(=O)N[C@@H](CO)C(=O)N[C@@H](C)C(=O)N[C@@H](CCC(=O)O)C(=O)N[C@@H](CCCNC(=N)N)C(=O)N[C@@H](CC(=O)O)C(=O)N[C@@H](CC(C)C)C(=O)N[C@@H](C)C(=O)N[C@@H](CC(=O)O)C(=O)N[C@H](C(=O)N[C@@H](CCCCN)C(=O)N[C@@H](CO)C(=O)N[C@@]1(C)CCCC=CCCC[C@@](C)(C(=O)N[C@@H](CO)C(=O)N[C@@H](CCC(=O)O)C(=O)N[C@@H](CCCCN)C(=O)N[C@@H](CCCNC(=N)N)C(N)=O)NC(=O)[C@H](CC(N)=O)NC(=O)[C@H](C(C)C)NC(=O)[C@H](CC(C)C)NC1=O)C(C)C
On to B1, for which the IC50 is at least 100000 nM.

B2: SP23 (peptide)
peptide: Ac-SAE[S5]DLA[S5]VKSSLVNESEKR-NH2
modifications: staple 4-8
SMILES: CC(=O)N[C@@H](CO)C(=O)N[C@@H](C)C(=O)N[C@@H](CCC(=O)O)C(=O)N[C@@]1(C)CCCC=CCCC[C@@](C)(C(=O)N[C@H](C(=O)N[C@@H](CCCCN)C(=O)N[C@@H](CO)C(=O)N[C@@H](CO)C(=O)N[C@@H](CC(C)C)C(=O)N[C@H](C(=O)N[C@@H](CC(N)=O)C(=O)N[C@@H](CCC(=O)O)C(=O)N[C@@H](CO)C(=O)N[C@@H](CCC(=O)O)C(=O)N[C@@H](CCCCN)C(=O)N[C@@H](CCCNC(=N)N)C(N)=O)C(C)C)C(C)C)NC(=O)[C@H](C)NC(=O)[C@H](CC(C)C)NC(=O)[C@H](CC(=O)O)NC1=O
Turning to B2, the half-inhibitory concentration (IC50) was at least 100000 nM.

B3: SP37 (peptide)
peptide: LGANDELISFADEGAQEEKSSNNSSAARDLADVKSSLV
modifications: not fully specified; N-terminal acetyl; C-terminal amide; $ = (S)-alpha-(2'-pentenyl)alanine at positions 11 and 15 (first crosslink) and 27 and 31 (second crosslink), each pair joined by an all-carbon crosslinker with one double bond
Turning to B3, the IC50 was determined as 56 nM.
The result for Ac-LGANDELISFKDEGEQEEKSSENSSAERDLADVKSSLV-NH2 (Linear, not crosslinked) [SP14] reads 95 nM.

B4: SP26 (peptide)
peptide: B3 peptide with A27E
modifications: not fully specified; N-terminal acetyl; C-terminal amide; $ = (S)-alpha-(2'-pentenyl)alanine at positions 11 and 15, joined by an all-carbon crosslinker with one double bond
Consider B4, for which the IC50 amounted to 42 nM.

B5: SP28 (peptide)
peptide: Ac-LGANDELISFKDEG[S5]QEE[S5]SSNNSSAERDLADVKSSLV-NH2
modifications: staple 15-19
SMILES: CC[C@H](C)[C@H](NC(=O)[C@H](CC(C)C)NC(=O)[C@H](CCC(=O)O)NC(=O)[C@H](CC(=O)O)NC(=O)[C@H](CC(N)=O)NC(=O)[C@H](C)NC(=O)CNC(=O)[C@H](CC(C)C)NC(C)=O)C(=O)N[C@@H](CO)C(=O)N[C@@H](Cc1ccccc1)C(=O)N[C@@H](CCCCN)C(=O)N[C@@H](CC(=O)O)C(=O)N[C@@H](CCC(=O)O)C(=O)NCC(=O)N[C@@]1(C)CCCC=CCCC[C@@](C)(C(=O)N[C@@H](CO)C(=O)N[C@@H](CO)C(=O)N[C@@H](CC(N)=O)C(=O)N[C@@H](CC(N)=O)C(=O)N[C@@H](CO)C(=O)N[C@@H](CO)C(=O)N[C@@H](C)C(=O)N[C@@H](CCC(=O)O)C(=O)N[C@@H](CCCNC(=N)N)C(=O)N[C@@H](CC(=O)O)C(=O)N[C@@H](CC(C)C)C(=O)N[C@@H](C)C(=O)N[C@@H](CC(=O)O)C(=O)N[C@H](C(=O)N[C@@H](CCCCN)C(=O)N[C@@H](CO)C(=O)N[C@@H](CO)C(=O)N[C@@H](CC(C)C)C(=O)N[C@H](C(N)=O)C(C)C)C(C)C)NC(=O)[C@H](CCC(=O)O)NC(=O)[C@H](CCC(=O)O)NC(=O)[C@H](CCC(N)=O)NC1=O
On to B5, for which the IC50 was found to be 158 nM.

B6: SP25 (peptide)
peptide: Ac-LGANAELISFKDEGEQEEKSSENSSAERDLADAKSSAV-NH2
notes: Linear, not crosslinked; differs from SP14 by Ala at peptide positions 5, 33 and 37
As to B6, the IC50 is at least 100000 nM.

B7: SP24 (peptide)
peptide: Ac-LGANAELISFKDEGEQEEKSSENSSAERDLADVKSSLV-NH2
notes: Linear, not crosslinked; differs from SP14 by Asp to Ala at the fifth residue of the peptide
Take B7: the IC50 was at least 100000 nM.

B8: SP27 (peptide)
peptide: Ac-LGANDELISFK[S5]EGE[S5]EEKSSNNSSAERDLADVKSSLV-NH2
modifications: staple 12-16
SMILES: CC[C@H](C)[C@H](NC(=O)[C@H](CC(C)C)NC(=O)[C@H](CCC(=O)O)NC(=O)[C@H](CC(=O)O)NC(=O)[C@H](CC(N)=O)NC(=O)[C@H](C)NC(=O)CNC(=O)[C@H](CC(C)C)NC(C)=O)C(=O)N[C@@H](CO)C(=O)N[C@@H](Cc1ccccc1)C(=O)N[C@@H](CCCCN)C(=O)N[C@@]1(C)CCCC=CCCC[C@@](C)(C(=O)N[C@@H](CCC(=O)O)C(=O)N[C@@H](CCC(=O)O)C(=O)N[C@@H](CCCCN)C(=O)N[C@@H](CO)C(=O)N[C@@H](CO)C(=O)N[C@@H](CC(N)=O)C(=O)N[C@@H](CC(N)=O)C(=O)N[C@@H](CO)C(=O)N[C@@H](CO)C(=O)N[C@@H](C)C(=O)N[C@@H](CCC(=O)O)C(=O)N[C@@H](CCCNC(=N)N)C(=O)N[C@@H](CC(=O)O)C(=O)N[C@@H](CC(C)C)C(=O)N[C@@H](C)C(=O)N[C@@H](CC(=O)O)C(=O)N[C@H](C(=O)N[C@@H](CCCCN)C(=O)N[C@@H](CO)C(=O)N[C@@H](CO)C(=O)N[C@@H](CC(C)C)C(=O)N[C@H](C(N)=O)C(C)C)C(C)C)NC(=O)[C@H](CCC(=O)O)NC(=O)CNC(=O)[C@H](CCC(=O)O)NC1=O
Regarding B8, the half-inhibitory concentration (IC50) amounted to 158 nM.

B9: SP29 (peptide)
peptide: Ac-LGANDELISFKDEGE[S5]EEK[S5]SNNSSAERDLADVKSSLV-NH2
modifications: staple 16-20
SMILES: CC[C@H](C)[C@H](NC(=O)[C@H](CC(C)C)NC(=O)[C@H](CCC(=O)O)NC(=O)[C@H](CC(=O)O)NC(=O)[C@H](CC(N)=O)NC(=O)[C@H](C)NC(=O)CNC(=O)[C@H](CC(C)C)NC(C)=O)C(=O)N[C@@H](CO)C(=O)N[C@@H](Cc1ccccc1)C(=O)N[C@@H](CCCCN)C(=O)N[C@@H](CC(=O)O)C(=O)N[C@@H](CCC(=O)O)C(=O)NCC(=O)N[C@@H](CCC(=O)O)C(=O)N[C@@]1(C)CCCC=CCCC[C@@](C)(C(=O)N[C@@H](CO)C(=O)N[C@@H](CC(N)=O)C(=O)N[C@@H](CC(N)=O)C(=O)N[C@@H](CO)C(=O)N[C@@H](CO)C(=O)N[C@@H](C)C(=O)N[C@@H](CCC(=O)O)C(=O)N[C@@H](CCCNC(=N)N)C(=O)N[C@@H](CC(=O)O)C(=O)N[C@@H](CC(C)C)C(=O)N[C@@H](C)C(=O)N[C@@H](CC(=O)O)C(=O)N[C@H](C(=O)N[C@@H](CCCCN)C(=O)N[C@@H](CO)C(=O)N[C@@H](CO)C(=O)N[C@@H](CC(C)C)C(=O)N[C@H](C(N)=O)C(C)C)C(C)C)NC(=O)[C@H](CCCCN)NC(=O)[C@H](CCC(=O)O)NC(=O)[C@H](CCC(=O)O)NC1=O
Turning to B9, the IC50 was determined as 223 nM.

B10: SP30 (peptide)
peptide: Ac-LGANDELISFKDEGEQEEKSSENSSA[S5]RDL[S5]DVKSSLV-NH2
modifications: staple 27-31
SMILES: CC[C@H](C)[C@H](NC(=O)[C@H](CC(C)C)NC(=O)[C@H](CCC(=O)O)NC(=O)[C@H](CC(=O)O)NC(=O)[C@H](CC(N)=O)NC(=O)[C@H](C)NC(=O)CNC(=O)[C@H](CC(C)C)NC(C)=O)C(=O)N[C@@H](CO)C(=O)N[C@@H](Cc1ccccc1)C(=O)N[C@@H](CCCCN)C(=O)N[C@@H](CC(=O)O)C(=O)N[C@@H](CCC(=O)O)C(=O)NCC(=O)N[C@@H](CCC(=O)O)C(=O)N[C@@H](CCC(N)=O)C(=O)N[C@@H](CCC(=O)O)C(=O)N[C@@H](CCC(=O)O)C(=O)N[C@@H](CCCCN)C(=O)N[C@@H](CO)C(=O)N[C@@H](CO)C(=O)N[C@@H](CCC(=O)O)C(=O)N[C@@H](CC(N)=O)C(=O)N[C@@H](CO)C(=O)N[C@@H](CO)C(=O)N[C@@H](C)C(=O)N[C@@]1(C)CCCC=CCCC[C@@](C)(C(=O)N[C@@H](CC(=O)O)C(=O)N[C@H](C(=O)N[C@@H](CCCCN)C(=O)N[C@@H](CO)C(=O)N[C@@H](CO)C(=O)N[C@@H](CC(C)C)C(=O)N[C@H](C(N)=O)C(C)C)C(C)C)NC(=O)[C@H](CC(C)C)NC(=O)[C@H](CC(=O)O)NC(=O)[C@H](CCCNC(=N)N)NC1=O
For the molecule B10, the IC50 amounted to 98 nM.
